The target of the assay is T1, 重组人SIRPα-his融合蛋白 (Acro Biosystems SIA-H5225) (human, UniProt P78324 31-370).
T1 construct: Bought reagent; also called 人SIRPα重组蛋白; not shown: his tag
Kind of assay: indirect ELISA screen of hybridoma supernatants, SIRPα-his coated. For orientation: ELISA stands for enzyme-linked immunosorbent assay.

Consider one molecule from patent publication CN110734897A (ZHEJIANG BLUE SHIELD PHARMA CO LTD, dated 2020).

T1 sequence (P78324 31-370 limits assumed): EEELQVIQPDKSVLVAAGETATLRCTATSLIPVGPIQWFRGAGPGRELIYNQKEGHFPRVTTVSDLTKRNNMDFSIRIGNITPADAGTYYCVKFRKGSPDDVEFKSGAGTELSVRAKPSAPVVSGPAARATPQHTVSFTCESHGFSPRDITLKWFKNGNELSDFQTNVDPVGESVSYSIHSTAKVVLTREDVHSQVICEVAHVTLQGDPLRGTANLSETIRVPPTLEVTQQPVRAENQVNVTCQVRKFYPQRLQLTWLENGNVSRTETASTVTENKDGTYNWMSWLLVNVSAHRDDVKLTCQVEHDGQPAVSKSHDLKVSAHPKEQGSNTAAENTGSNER

B1: 杂交瘤细胞株12G6产生的抗人SIRPα单克隆抗体 (antibody, IgG2b, V domains shown)
VH: QIQLVQSGPELKKPGETVKISCKASGYTFTNYGMHWVKQAPGKDLKWMGWINTYTGEPTNADDFKGRFAFSLETSDRTAFLQINNLKNEDTATYFCARGHHYGNYAWFAYWGQGTLVTVSA
VL: DIVMTQSHKFMSTSVGDRVSITCKASQDVSLAVAWYQQKPGQSPKVLIYWASTRHTGVPDRFAGSGSGTDYTLTISSVQAEDLALYYCQQHYSTPWTFGGGTKLEIN
notes: also called 纯化的抗人SIRPα单克隆抗体
For B1, the binding result is “binds”.
